This data set concerns T1, C=CCc1cc(OC)c2c(c1)OCO2.
T1 construct: full-length, 505 residues, 57 kD, untagged; microsomal fraction of Saccharomyces cerevisiae AH22, vector pGYR-SpeI co-expressing yeast NADPH-P450 reductase
Description: GC-FID product assay, yeast microsomal fraction. Format: biochemical, Perilla frutescens. To be noted: 0.5 mM NADPH, 50 mM HEPES/NaOH pH 7.5, 30 °C, 15 min, myristicin 0.2 to 10 µM, co-expressed yeast NADPH-P450 reductase, product 6-allyl-4-methoxy-1,3-benzodioxol-5-ol. The source says:
GC-FID product assay, yeast microsomal fraction on Pf-49487 (CYP71D558) | We performed kinetic analyses of the Pf-49487 reaction using myristicin as substrate.

As to “Pf-49487 (CYP71D558) (Perilla frutescens)”, the Km is reported as 9.1 µM and the kcat amounted to 0.25 s⁻¹.

A word on the Km: it is the concentration of substrate that gives half-maximal velocity. For orientation: kcat means the number of substrate molecules converted per active site and unit of time at saturation.

Values taken from paper PMC7284770, “Cloning and Expression of a Perilla frutescens Cytochrome P450 Enzyme Catalyzing the Hydroxylation of Phenylpropenes” (Plants, 2020).
